Test results reported in patent US20220362330A1, “Compositions and Methods for Increasing Epithelial Barrier Function” (The Board of Trustees of the Leland Stanford Junior …, priority 2019, published 2022).
“Also recorded” adds a separate entry of the source. Square brackets hold non-standard residues; d marks the D form. Ends that are not written are not given here. Ahx = NCCCCCC(=O)O

B1: Fc-EFNA3: Recombinant Mouse Ephrin-A3 Fc Chimera Protein, SEQ ID NO: 13 (protein)
chain: QGPGGALGNRHAVYWNSSNQHLRREGYTVQVNVNDYLDIYCPHYNSSGPGGGAEQYVLYMVNLSGYRTCNASQGSKRWECNRQHASHSPIKFSEKFQRYSAFSLGYEFHAGQEYYYISTPTHNLHWKCLRMKVFVCCASTSHSGEKPVPTLPQFTMGPNVKINVLEDFEGENPQVPKLEKSISGIEGRMDPAKTTAPSVYPLAPVCGDTTGSSVTLGCLVKGYFPEPVTLTWNSGSLSSGVHTFPAVLQSDLYTLSSSVTVTSSTWPSQSITCNVAHPASSTKVDKKIEPRGPTIKPCPPCKCPAPNLLGGPSVFIFPPKIKDVLMISLSPIVTCVVVDVSEDDPDVQISWFVNNVEVHTAQTQTHREDYNSTLRVVSALPIQHQDWMSGKEFKCKVNNKDLPAPIERTISKPKGSVRAPQVYVLPPPEEEMTKKQVTLTCMVTDFMPEDIYVEWTNNGKTELNYKNTEPVLDSDGSYFMYSKLRVEKKNWVERNSYSCSVVHEGLHNHHTTKSFSRTPGK

Tests used:
desmoglein-1a (DSG1a) = experiment: qRT-PCR of Dsg1a gene expression in vaginal tissue; assay type: in vivo, mice
Protocol: (§1) To define progestin-mediated changes in mucosal permeability, vaginal tissue from mice in estrus, diestrus, or after DMPA or LNG treatment was used to measure expression of the desmosomal cadherins desmoglein-1a (DSG1a) and desmocollin-1 (DSC1).
(§2) Human ectocervical and murine vaginal tissues were immediately immersed in 1 mL of RNAlater® (Qiagen), stored for 24 h at 4° C., and stored long-term at −80° C. RNA isolated using the RNeasy Lipid Tissue Kit (Qiagen) using manufacturer's instructions was re-suspended in nuclease-free water and quantified using a NanoDrop spectrophotometer (Thermo Scientific). The following mouse primers were utilized: desmocollin 1 (Mm00496525_ml), desmoglein-1α (Mm00809994_s1), ephrinA3 (Mm01212723_g1) and pyruvate carboxylase (Mm00500992_ml) as housekeeping reference gene (all from Thermo Scientific). These human primers were used: desmoglein-1 (Hs00355084_m1) and glucose-6-phosphate isomerase (Hs00976711_m1) as a housekeeping reference gene. To define relative gene expression, 100 ng of RNA was mixed with TaqMan® RNA-to-Ct™ 1-Step Kit and adequate primer (final volume of 10 μL/well) using manufacturer's instructions (Life Technologies). qRT-PCR was performed using a Quantstudio3 Thermal Cycler, and data analyzed via Quanstudio Software (Applied Biosystems).

vaginal epithelium = experiment: Vaginal epithelial integrity and thickness in OVX mice, histology; assay type: in vivo; conditions: ivag for 9 consecutive days, peptide dimer 10^−4 μM, Fc-EFNA3 1 μM
Protocol: Mice in estrus and OVX mice were used in these experiments. OVX mice received PBS alone, EFNA3-derived peptide dimer (10^−4 μM) or recombinant mouse Fc-EFNA3 (1 μM) via atraumatic intravaginal administration for 9 consecutive days. All mice were euthanized, and vaginal tissue processed for histological evaluation and measurement of vaginal epithelial thickness.
8-10 weeks female C57BL/6J mice were anesthetized. Dorsal skin was shaved and cleaned with 70% ethanol followed by povidone-iodine. Following appropriate sterile technique, a single dorsal skin incision was performed, followed by dissection until ovarian fat pads were identified and ovaries removed. Peritoneal and abdominal walls were sutured, and mice recovered from anesthesia. After confirmation of suppression of estrous cycle, mice were used in experiments.

VK2/E6E7 vaginal cells = experiment: DSG1 gene expression in human vaginal epithelial cell line; assay type: cell-based; conditions: 24 h, qRT-PCR
Protocol: VK2/E6E7 vaginal cells at 70-90% confluency were treated with indicated concentrations of EFNA3-derived peptide dimer for 24 h. Cells were harvested for RNA isolation and determination of relative DSG1 gene expression via qRT-PCR and ΔΔCt analysis.
VK2/E6E7 (ATCC® CRL-2616™) vaginal epithelial cell line was grown using ReproLife™ Reproductive Medium Complete Kit for up to 4 passages. For experiments, 10^5 cells were plated in 12-well plates. Cells reached 70-90% confluency after 24 hand were stimulated with EFNA3-like peptide dimer or vehicle. Cells were incubated for 24 h with indicated treatments. RNA was extracted and 500 ng of RNA used to generate cDNA using the SuperScript™ IV VILO™ Master Mix. Relative DSG1 (Hs00355084_m1) gene expression was calculated by normalization with the housekeeping gene glucose-6-phosphate isomerase (Hs00976711_m1) via qRT-PCR.

desmocollin-1 (DSC1) = experiment: qRT-PCR of Dsc1 gene expression in vaginal tissue; assay type: in vivo, mice; conditions: DMPA-treated mice
Protocol: as §1, §2

genital mucosal barrier = experiment: Murine tissue permeability assay, low molecular weight fluorescent molecules given intravaginally; assay type: in vivo, mice
Protocol: Effects of progestins on genital mucosal barrier permeability were evaluated by intravaginally (ivag) administering 457 Da and 70 KDa-sized fluorescent molecules to mice in estrus or diestrus-stage or after DMPA or LNG treatment. Mice were grouped as follows: untreated in estrus, untreated in diestrus, DMPA treated, or LNG treated. The mice were intravaginally administered a PBS solution containing Lucifer yellow (457 Da) and Texas-Red-conjugated dextran (70 KDa). Animals were euthanized 45 minutes later to assess vaginal tissue penetration of these molecules by confocal microscopy. […] Mucosal permeability was increased moderately by diestrus, but dramatically by DMPA or LNG. Conversely, permeability increases were negligible in estrus-stage mice and mice treated with MePRDL or DMPA and RU486. This indicates exogenous progestins increase genital mucosal permeability.
To evaluate mucosal permeability to low molecular weight molecules, indicated groups of mice were sedated, and 10 μL of a PBS solution containing 62.5 μg of dextran Texas-Red® (DR) (MW=70,000 Da) and 50 μg of Lucifer yellow CH, lithium salt (LY) (MW=457.2 Da) (both from Life Technologies) administered intravaginally. 45 minutes later, mice were euthanized, and excised vaginal tissue fixed in formaldehyde. Fixed tissue was embedded in agarose, and 200-300 μm specimens were sectioned with a vibratome. After counterstaining with 4,6-diamidino-2-phenylindole (DAPI), confocal microscopy images were acquired by sequential scanning to prevent fluorescence crossover.

anti-OVA IgE = experiment: Mouse epicutaneous sensitization model of atopic dermatitis, serum anti-OVA IgE ELISA; assay type: in vivo, mice; conditions: 3 cycles, OVA + Fc-EFNA3 vs OVA alone
Protocol: Mice underwent epicutaneous sensitization with OVA alone or in combination with recombinant mouse Fc-EFNA3. After 3 sensitization cycles, animals were euthanized to obtain blood for serum isolation. Then, levels of serum anti-OVA IgE was determined via ELISA.
6-10 weeks old Balb/cJ mice were anesthetized. Dorsal skin was shaved, and skin tape-stripped 6 times. PBS alone, 100 μg of ovalbumin (OVA) in PBS or 100 μg OVA+recombinant mouse Fc-EFNA3 in 100 μl of PBS were added to a 1×1 cm sterile gauze that was applied directly to tape-stripped area of skin and covered with a transparent bio-occlusive dressing. This patch was left in place for a 1-week period and removed. This procedure was repeated twice with 2-week intervals between applications. After completing the 3rd skin sensitization, mice were euthanized and serum samples obtained. Serum levels of anti-OVA IgE were was determined using an in-house ELISA.

DSG1 protein = DSG1 protein levels in vaginal tissue, immunofluorescent staining and confocal microscopy; assay type: in vivo, mice
Protocol: Excised mouse vaginas were formaldehyde fixed and paraffin embedded (FFPE), and 10 μm sections mounted on glass slides and de-paraffinized by sequential immersion in 100% xylene, 100% ethanol, 96% ethanol, and sterile DEPC-treated water. Antigen retrieval was performed using 10 mM sodium citrate buffer (pH 6.0) containing 0.05% Tween 20 (both Sigma-Aldrich) (20 minutes at 95° C.). After 3 PBS washes, sections were incubated overnight in 10% normal goat serum (Abcam, Cambridge Mass.) at 4° C., then incubated for 1 h at ambient temperate with rabbit anti-desmoglein-1 (clone EPR6766(B)) antibody, washed and incubated for 1 h with AlexaFluor® 488-labeled goat anti-rabbit IgG (antibodies from Abcam) (all antibodies were diluted in PBS with 1% BSA and 0.05% Tween 20). Sections were stained with DAPI and evaluated for levels of DSG1 protein (defined by calculating pixel numbers per 100 μm^2) using confocal microscopy and ImageJ software.

HSV-2 = experiment: Lethal genital HSV-2 infection; assay type: in vivo; conditions: DMPA-treated mice; 10^4 pfu of HSV-2
Protocol: Mice were sedated with xylazine (Lloyd Laboratories, Shenandoah Iowa) and ketamine hydrochloride (JHP Pharmaceuticals, LLC Rochester Mich.), and intravaginally infected with 10^4 plaque-forming units (pfu) of WT HSV-2 333 in 10 μL of RPMI. Mouse mortality was evaluated daily for 15 days.

Molecule | potency on Dsg1a expression compared to recombinant mouse Fc-EFNA3 (desmoglein-1a (DSG1a); DMPA-treated mice, Fc-EFNA3 at 1 μM) | Dsg1a mouse vaginal expression (desmoglein-1a (DSG1a); DMPA-treated mice, topical/ivag in PBS, 24 hours) | expression of cell-cell adhesion molecules in genital mucosal epithelium (desmoglein-1a (DSG1a); topical administration) | vaginal epithelial integrity (epithelial thickness) (vaginal epithelium) | DSG1 gene expression (VK2/E6E7 vaginal cells) | dose that optimized Dsc1 gene expression (desmocollin-1 (DSC1); ivag 0.25, 0.5, 1 and 2.5 μg in 10 μL, six hours after treatment) [µg] | expression of Dsc1 (desmocollin-1 (DSC1); ivag, select doses vs Fc-control, 6 h) | genital mucosal barrier function / permeability to LMW fluorescent molecules (genital mucosal barrier; DMPA-treated mice, one ivag dose of 1.5 ug/30 uL) | genital mucosal barrier function (summary of the studies) (genital mucosal barrier; via increased expression of epithelial cell-cell adhesion molecules, especially DSG1) | dose that optimized Dsg1a gene expression (desmoglein-1a (DSG1a); DMPA-treated mice, ivag 0.25, 0.5, 1 and 2.5 μg in 10 μL, six hours after treatment) [µg] | expression of Dsg1a (desmoglein-1a (DSG1a); DMPA-treated mice, ivag, select doses vs Fc-control, 6 h) | serum allergen-specific (anti-OVA) IgE levels (anti-OVA IgE) | serum allergen-specific (anti-OVA) IgE levels (anti-OVA IgE; listed as recombinant mouse Fc-EFNA3) | homogeneity of DSG1 protein expression (DSG1 protein; 1.5 ug in 30 uL of PBS vs 0.5 ug in 10 uL of PBS) | dose that optimized levels of DSG1 protein (DSG1 protein; DMPA-treated mice, 24 hours after treatment) [µg] | DSG1 expression at higher doses (DSG1 protein; DMPA-treated mice, 24 hours, doses above 1 μg) | DSG1 protein expression, dose dependence (DSG1 protein; DMPA-treated mice, 24 hours, up to the 1 μg dose) | survival after genital HSV-2 infection (HSV-2)
RYSAFSLGYEFH-Ahx-K-HFEYGLSFASYR (RYSAFSLGYEFH[Ahx]KHFEYGLSFASYR; also: Ahx-Lys linked dimer) [EFNA3-derived peptide dimer, Ahx is aminohexanoic acid] | greater potency | promotes Dsg1a mouse vaginal expression | significantly increases | improves vaginal epithelial integrity | increase DSG1 expression; also recorded: promotes DSG1 expression |  |  |  |  |  |  |  |  |  |  |  |  | 
B1 |  |  |  | improves vaginal epithelial integrity |  | 0.5 | increased expression | decreased genital mucosal permeability | enhanced genital mucosal barrier function | 0.5 | increased expression | reduces allergen sensitization | decreased allergen-specific IgE levels | more homogeneous expression | 0.5 | reduced at higher doses | dose-dependent increase | improves the survival
